Measurements from PMC9098913, “In vitro reconstitution of Escherichia coli divisome activation” (Nature Communications, 2022).

Tested on: FtsA self-interaction
Experiment: FRET self-interaction of His-tagged FtsAs (and His-SUMO control) on Tris-NTA membranes
Assay type: binding, E. coli
Experimental: To study colocalization of His-tagged variants of FtsA, 0.5–1 µM of Cy5 labelled His-tagged FtsAs were added to the chamber, incubated for 20 min and washed 6x with reaction buffer. […] To control the density of membrane-bound FtsA, SUVs without and with Tris-NTA lipids were mixed to obtain the respective Tris-NTA concentrations. To perform FRET/FRAP experiments, equimolar concentrations of Cy3 and Cy5 labelled His-tagged FtsAs (total 0.5–1 µM) or His-SUMO-Cys were added to a chamber and treated as above. […] FRAP experiments were performed as described before.
Bleaching the acceptor dye leads to an increase in the donor intensity, which can be used to quantify the Foerster Resonance energy transfer (FRET)[48]. FRET efficiency was quantified with E%=Ipost/Ipost+Ipre⋅100 , where Ipost is the intensity of the […] and Ipre is the […]. […] To extract the contribution of both processes, we adjusted a routine recently published by Gerganova et al.[33]. In short, the code provides the contribution of both modes of recovery by analysing the shape of the fluorescence recovery profile. […] Contribution of diffusion leads to a change of the slope of the outer borders of the bleached region (S4h right). Thus, by measuring the change of the slope of the border recovery, diffusion and simple on/off binding can be distinguished. We developed “FRAPdiff”, a graphical user interface, which uses the original fit routine by David Rutkowski. It can be used directly on.tiff movies with annotated bleach regions as ImageJ ROIs. In addition, we added optional bleach correction, user selectable projection axis (x or y), and optional mirroring of the recovery profiles, if bleaching was not symmetric. The original fit routine for estimating the recovery and diffusion dynamics can be found at https://github.com/davidmrutkowski/1DReflectingDiffusion. FRAPdiff is available at 10.5281/zenodo.6400639[49] under the GPLv3 open-source license.

B1: FtsA R286W-His6: FtsA R286W (1-405) with amphipathic helix replaced by C-terminal His-tag (protein)
chain: MIKATDRKLVVGLEIGTAKVAALVGEVLPDGMVNIIGVGSCPSRGMDKGGVNDLESVVKCVQRAIDQAELMADCQISSVYLALSGKHISCQNEIGMVPISEEEVTQEDVENVVHTAKSVRVRDEHRVLHVIPQEYAIDYQEGIKNPVGLSGVRMQAKVHLITCHNDMAKNIVKAVERCGLKVDQLIFAGLASSYSVLTEDERELGVCVVDIGGGTMDIAVYTGGALRHTKVIPYAGNVVTSDIAYAFGTPPSDAEAIKVRHGCALGSIVGKDESVEVPSVGGRPPWSLQRQTLAEVIEPRYTELLNLVNEEILQLQEKLRQQGVKHHLAAGIVLTGGAAQIEGLAACAQRVFHTQVRIGAPLNITGLTDYAQEPYYSTAVGLLHYGKESHLNGEAEVEKRVTASV
modifications: Cy3 or Cy5 at the N-terminus in the labelled form (sortagging as for native FtsA); left off: TwinStrep-SUMO, N-terminal, cleaved | 5xGlycine tag, N-terminal, kept | His6, C-terminal, kept
Question: What does the source list for B1?
Answer: FRET efficiency (0.1% Tris NTA, + FtsZ; Exp1): 0.51%; FRET efficiency (0.1% Tris NTA, + FtsZ; Exp2): 0.32%; FRET efficiency (0.1% Tris NTA, + FtsZ; mean, n = 2): 0.42%; FRET efficiency (0.1% Tris NTA, without FtsZ; Exp1): 0.42%; FRET efficiency (0.1% Tris NTA, without FtsZ; Exp2): 0.20%; FRET efficiency (0.1% Tris NTA, without FtsZ; mean, n = 2): 0.31%; FRET efficiency (0.4% Tris NTA; + FtsZ; Exp1): 4.18%; FRET efficiency (0.4% Tris NTA; + FtsZ; Exp2): 2.69%; FRET efficiency (0.4% Tris NTA; + FtsZ; Mean, n = 2): 3.43%; FRET efficiency (0.4% Tris NTA; without FtsZ; Exp1): 3.62%; FRET efficiency (0.4% Tris NTA; without FtsZ; Exp2): 3.61%; FRET efficiency (0.4% Tris NTA; without FtsZ; Mean, n = 2): 3.62%; FRET efficiency (0.6% Tris NTA; + FtsZ; Exp1): 3.82%; FRET efficiency (0.6% Tris NTA; + FtsZ; Exp2): 8.42%; FRET efficiency (0.6% Tris NTA; + FtsZ; Exp3): 3.49%; FRET efficiency (0.6% Tris NTA; + FtsZ; Mean, n = 3): 5.24%; FRET efficiency (0.6% Tris NTA; without FtsZ; Exp1): 2.27%; FRET efficiency (0.6% Tris NTA; without FtsZ; Exp2): 7.55%; FRET efficiency (0.6% Tris NTA; without FtsZ; Exp3): 3.60%; FRET efficiency (0.6% Tris NTA; without FtsZ; Mean, n = 3 (His6-SUMO n = 2)): 4.47%; FRET efficiency (0.8% Tris NTA; + FtsZ; Exp1): 12.66%; FRET efficiency (0.8% Tris NTA; + FtsZ; Exp2): 13.96%; FRET efficiency (0.8% Tris NTA; + FtsZ; Exp3): 6.95%; FRET efficiency (0.8% Tris NTA; + FtsZ; Mean, n = 3): 11.19%; FRET efficiency (0.8% Tris NTA; without FtsZ; Exp1): 11.90%; FRET efficiency (0.8% Tris NTA; without FtsZ; Exp2): 13.18%; FRET efficiency (0.8% Tris NTA; without FtsZ; Exp3): 7.63%; FRET efficiency (0.8% Tris NTA; without FtsZ; Mean, n = 3 (His6-SUMO n = 2)): 10.90%; FRET efficiency (1% Tris NTA; + FtsZ; Exp1): 18.63%; FRET efficiency (1% Tris NTA; + FtsZ; Exp2): 11.68%; FRET efficiency (1% Tris NTA; + FtsZ; Exp3): 16.69%; FRET efficiency (1% Tris NTA; + FtsZ; Exp4): 5.28%; FRET efficiency (1% Tris NTA; + FtsZ; Mean, n = 3 (R286W-His6 n = 4)): 13.07%; FRET efficiency (1% Tris NTA; without FtsZ; Exp1): 13.30%; FRET efficiency (1% Tris NTA; without FtsZ; Exp2): 11.28%; FRET efficiency (1% Tris NTA; without FtsZ; Exp3): 16.33%; FRET efficiency (1% Tris NTA; without FtsZ; Exp4): 5.94%; FRET efficiency (1% Tris NTA; without FtsZ; Mean, n = 3 (R286W-His6 n = 4)): 11.71%; FRET efficiency (2% Tris NTA; + FtsZ; Exp1): 13.95%; FRET efficiency (2% Tris NTA; + FtsZ; Exp2): 11.07%; FRET efficiency (2% Tris NTA; + FtsZ; Mean, n = 2): 12.51%; FRET efficiency (2% Tris NTA; without FtsZ; Exp1): 11.54%; FRET efficiency (2% Tris NTA; without FtsZ; Exp2): 10.61%; FRET efficiency (2% Tris NTA; without FtsZ; Mean, n = 2): 11.08%; FRET efficiency (Tris 0.40 %, + FtsZ; mean): 3.43%; FRET efficiency (Tris 0.40 %, without FtsZ; mean): 3.61%; FRET efficiency (Tris 0.60 %, + FtsZ; mean): 5.24%; FRET efficiency (Tris 0.60 %, without FtsZ; mean): 4.47%; FRET efficiency (Tris 0.80 %, + FtsZ; mean): 11.19%; FRET efficiency (Tris 0.80 %, without FtsZ; mean): 10.90%; FRET efficiency (Tris 1.00 %, + FtsZ; mean): 13.07%; FRET efficiency (Tris 1.00 %, without FtsZ; mean): 11.71%; FRET efficiency (Tris 2.00 %, + FtsZ; mean): 12.51%; FRET efficiency (Tris 2.00 %, without FtsZ; mean): 11.08%; FRET efficiency ([…] Tris NTA, + FtsZ; Exp1): 3.67%; FRET efficiency ([…] Tris NTA, + FtsZ; Exp2): 2.76%; FRET efficiency ([…] Tris NTA, + FtsZ; mean, n = 2): 3.22%; FRET efficiency ([…] Tris NTA, without FtsZ; Exp1): 3.93%; FRET efficiency ([…] Tris NTA, without FtsZ; Exp2): 1.52%; FRET efficiency ([…] Tris NTA, without FtsZ; mean, n = 2): 2.73%; FRET efficiency ([…] Tris NTA; + FtsZ; Exp1): 8.55%; FRET efficiency ([…] Tris NTA; + FtsZ; Exp2): 12.05%; FRET efficiency ([…] Tris NTA; + FtsZ; Exp3): 9.96%; FRET efficiency ([…] Tris NTA; + FtsZ; Mean, n = 3): 10.19%; FRET efficiency ([…] Tris NTA; without FtsZ; Exp1): 9.50%; FRET efficiency ([…] Tris NTA; without FtsZ; Exp2): 13.25%; FRET efficiency ([…] Tris NTA; without FtsZ; Exp3): 7.80%; FRET efficiency ([…] Tris NTA; without FtsZ; Mean, n = 3): 10.18%; FRET increase with FtsNcyto-His ([…] Tris-NTA): more than twofold; FRET efficiency ([…] Tris-NTA; + N (FtsNcyto); mean): 18.47%; FRET efficiency ([…] Tris-NTA; + N/Z (FtsNcyto and FtsZ); mean): 17.73%; FRET efficiency ([…] Tris-NTA; + N/Z; Exp. 1): 21.67%; FRET efficiency ([…] Tris-NTA; + N/Z; Exp. 2): 17.33%; FRET efficiency ([…] Tris-NTA; + N/Z; Exp. 3): 14.20%; FRET efficiency ([…] Tris-NTA; + N; Exp. 1): 22.02%; FRET efficiency ([…] Tris-NTA; + N; Exp. 2): 17.07%; FRET efficiency ([…] Tris-NTA; + N; Exp. 3): 16.35%; FRET efficiency ([…] Tris-NTA; + Z (FtsZ); mean): 8.99%; FRET efficiency ([…] Tris-NTA; + Z; Exp. 1): 5.42%; FRET efficiency ([…] Tris-NTA; + Z; Exp. 2): 8.55%; FRET efficiency ([…] Tris-NTA; + Z; Exp. 3): 12.05%; FRET efficiency ([…] Tris-NTA; + Z; Exp. 4): 9.96%; FRET efficiency ([…] Tris-NTA; alone; Exp. 1): 4.90%; FRET efficiency ([…] Tris-NTA; alone; Exp. 2): 9.50%; FRET efficiency ([…] Tris-NTA; alone; Exp. 3): 13.25%; FRET efficiency ([…] Tris-NTA; alone; Exp. 4): 7.80%; FRET efficiency ([…] Tris-NTA; alone; mean): 8.86%; FRET efficiency (with FtsNcyto attached to the membrane; mean ± s.d.; p-value 0.03): 17.73 ± 3.06%
